Here are results for 11 molecules from paper PMC6606445 (Nature structural & molecular biology, 2018).

One data set addresses RecE-αN-tetramer (UniProt Q15431). In words: SEC-MALS. A general note: SEC sorts molecules by how far they enter the pores of the column.
Data set [1] concerns the target SYCP1 αN-end (101-206) (human) (UniProt Q15431). In words: crystal structure.
Data set [2] has as its target truncated SYCP1 αN-end (101-175) (human) (UniProt Q15431). The data set can be described thus: crystal structure.
Data set [3] deals with the molecule itself. In words: SEC-MALS.
The data set “crystal structure” concerns the molecule itself. In words: crystal structure.
Data set [4] concerns the molecule itself. The data set can be described thus: SEC-MALS. The source holds these as a separate data set.

A word on the stoichiometry N: it is the number of molecules, sites or subunits per partner or assembly. “RecE-αN-tetramer (from UniProt Q15431 206-362)” yielded a stoichiometry N with RecE-αN-tetramer of 4.

“SYCP1 αN-end (101-206) (from UniProt Q15431 101-206) (domain or fragment)” gave a stoichiometry N in data set [1] of 4.

In data set [2], “truncated SYCP1 αN-end (101-175) (from UniProt Q15431 101-175) (domain or fragment)” displayed a stoichiometry N of 4.

B1: SYCP1 αN-tetramer (206-362) (domain or fragment)
chain: ETRQVYMDLNNNIEKMITAFEELRVQAENSRLEMHFKLKEDYEKIQHLEQEYKKEINDKEKQVSLLLIQITEKENKMKDLTFLLEESRDKVNQLEEKTKLQSENLKQSIEKQHHLTKELEDIKVSLQRSVSTQKALEEDLQIATKTICQLTEEKETQ
As to B1, the “stoichiometry N” value in “SEC-MALS [3]” turned out to be 4.

B2: SYCP1 αC-end (676-770) (domain or fragment)
chain: ENLLEEVEKAKVIADEAVKLQKEIDKRCQHKIAEMVALMEKHKHQYDKIIEERDSELGLYKSKEQEQSSLRASLEIELSNLKAELLSVKKQLEIE
Turning to B2, the “stoichiometry N” value in “crystal structure” is 4.

B3: SYCP1 αC-end extended (676-783) L679A I688A (domain or fragment)
chain: ENLAEEVEKAKVAADEAVKLQKEIDKRCQHKIAEMVALMEKHKHQYDKIIEERDSELGLYKSKEQEQSSLRASLEIELSNLKAELLSVKKQLEIEREEKEKLKREAKE
For the molecule B3, the “stoichiometry N” value in the data set “SEC-MALS [4]” came to 2.

B4: SYCP1 αCore-ΔNtip (112-783) (domain or fragment)
chain: EAEKIKKWKVSTEAELRQKESKLQENRKIIEAQRKAIQELQFGNEKVSLKLEEGIQENKDLIKENNATRHLCNLLKETCARSAEKTKKYEYEREETRQVYMDLNNNIEKMITAFEELRVQAENSRLEMHFKLKEDYEKIQHLEQEYKKEINDKEKQVSLLLIQITEKENKMKDLTFLLEESRDKVNQLEEKTKLQSENLKQSIEKQHHLTKELEDIKVSLQRSVSTQKALEEDLQIATKTICQLTEEKETQMEESNKARAAHSFVVTEFETTVCSLEELLRTEQQRLEKNEDQLKILTMELQKKSSELEEMTKLTNNKEVELEELKKVLGEKETLLYENKQFEKIAEELKGTEQELIGLLQAREKEVHDLEIQLTAITTSEQYYSKEVKDLKTELENEKLKNTELTSHCNKLSLENKELTQETSDMTLELKNQQEDINNNKKQEERMLKQIENLQETETQLRNELEYVREELKQKRDEVKCKLDKSEENCNNLRKQVENKNKYIEELQQENKALKKKGTAESKQLNVYEIKVNKLELELESAKQKFGEITDTYQKEIEDKKISEENLLEEVEKAKVIADEAVKLQKEIDKRCQHKIAEMVALMEKHKHQYDKIIEERDSELGLYKSKEQEQSSLRASLEIELSNLKAELLSVKKQLEIEREEKEKLKREAKE
As to B4, in “SEC-MALS [3]”, the “stoichiometry N” value was 4.

B5: SYCP1 αCore (101-783) (domain or fragment)
chain: GLSRVYSKLYKEAEKIKKWKVSTEAELRQKESKLQENRKIIEAQRKAIQELQFGNEKVSLKLEEGIQENKDLIKENNATRHLCNLLKETCARSAEKTKKYEYEREETRQVYMDLNNNIEKMITAFEELRVQAENSRLEMHFKLKEDYEKIQHLEQEYKKEINDKEKQVSLLLIQITEKENKMKDLTFLLEESRDKVNQLEEKTKLQSENLKQSIEKQHHLTKELEDIKVSLQRSVSTQKALEEDLQIATKTICQLTEEKETQMEESNKARAAHSFVVTEFETTVCSLEELLRTEQQRLEKNEDQLKILTMELQKKSSELEEMTKLTNNKEVELEELKKVLGEKETLLYENKQFEKIAEELKGTEQELIGLLQAREKEVHDLEIQLTAITTSEQYYSKEVKDLKTELENEKLKNTELTSHCNKLSLENKELTQETSDMTLELKNQQEDINNNKKQEERMLKQIENLQETETQLRNELEYVREELKQKRDEVKCKLDKSEENCNNLRKQVENKNKYIEELQQENKALKKKGTAESKQLNVYEIKVNKLELELESAKQKFGEITDTYQKEIEDKKISEENLLEEVEKAKVIADEAVKLQKEIDKRCQHKIAEMVALMEKHKHQYDKIIEERDSELGLYKSKEQEQSSLRASLEIELSNLKAELLSVKKQLEIEREEKEKLKREAKE
B5: the binding result in the data set “SEC-MALS [3]” is “binds”.

B6: GST-αC-dimer (domain or fragment)
chain: EKETQMEESNKARAAHSFVVTEFETTVCSLEELLRTEQQRLEKNEDQLKILTMELQKKSSELEEMTKLTNNKEVELEELKKVLGEKETLLYENKQFEKIAEELKGTEQELIGLLQAREKEVHDLEIQLTAITTSEQYYSKEVKDLKTELENEKLKNTELTSHCNKLSLENKELTQETSDMTLELKNQQEDINNNKKQEERMLKQIENLQETETQLRNELEYVREELKQKRDEVKCKLDKSEENCNNLRKQVENKNKYIEELQQENKALKKKGTAESKQLNVYEIKVNKLELELESAKQKFGEITDTYQKEIEDKKISEENLLEEVEKAKVIADEAVKLQKEIDKRCQHKIAEMVALMEKHKHQYDKIIEERDSELGLYKSKEQEQSSLRASLEIELSNLKAELLSVKKQLEIEREEKEKLKREAKE
For the molecule B6, in the data set “SEC-MALS [3]”, the “stoichiometry N” value came to 2.

B7: SYCP1 αC-dimer (358-783) (domain or fragment)
chain: EKETQMEESNKARAAHSFVVTEFETTVCSLEELLRTEQQRLEKNEDQLKILTMELQKKSSELEEMTKLTNNKEVELEELKKVLGEKETLLYENKQFEKIAEELKGTEQELIGLLQAREKEVHDLEIQLTAITTSEQYYSKEVKDLKTELENEKLKNTELTSHCNKLSLENKELTQETSDMTLELKNQQEDINNNKKQEERMLKQIENLQETETQLRNELEYVREELKQKRDEVKCKLDKSEENCNNLRKQVENKNKYIEELQQENKALKKKGTAESKQLNVYEIKVNKLELELESAKQKFGEITDTYQKEIEDKKISEENLLEEVEKAKVIADEAVKLQKEIDKRCQHKIAEMVALMEKHKHQYDKIIEERDSELGLYKSKEQEQSSLRASLEIELSNLKAELLSVKKQLEIEREEKEKLKREAKE
B7: the “stoichiometry N” value in the data set “SEC-MALS [3]” came out at 2.

B8: SYCP1 αN (101-362) (domain or fragment)
chain: GLSRVYSKLYKEAEKIKKWKVSTEAELRQKESKLQENRKIIEAQRKAIQELQFGNEKVSLKLEEGIQENKDLIKENNATRHLCNLLKETCARSAEKTKKYEYEREETRQVYMDLNNNIEKMITAFEELRVQAENSRLEMHFKLKEDYEKIQHLEQEYKKEINDKEKQVSLLLIQITEKENKMKDLTFLLEESRDKVNQLEEKTKLQSENLKQSIEKQHHLTKELEDIKVSLQRSVSTQKALEEDLQIATKTICQLTEEKETQ
For B8, in “SEC-MALS [3]”, the binding result is “binds”.
